The text below walks through data of publication PMC8324832.

One may read the stoichiometry N as the number of molecules, sites or subunits per partner or assembly.

The experiment concerns the target Right-Handed Coiled Coil-Nanotube (RHCC-NT) (Staphylothermus marinus). In words: crystal structure; RHCC-NT incubated with o-carborane at 50 °C for 1 week, 10 mg/mL in 10 mM TRIS pH 7.5, 154 mM NaCl; vapour diffusion; data at 100 K; 2.2 Å; molecular replacement with PDB 1YBK.

In the case of “Right-Handed Coiled Coil-Nanotube (RHCC-NT) (domain or fragment)”, the stoichiometry N amounted to 4.
